# T1: SNTG2, Q9NY99
# T1 sequence (Q9NY99 68-166, limits assumed, looked up): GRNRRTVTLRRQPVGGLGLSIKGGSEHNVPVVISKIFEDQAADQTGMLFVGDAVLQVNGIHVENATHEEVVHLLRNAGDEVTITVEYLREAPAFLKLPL
# T2: HTRA4, P83105
# T2 sequence (P83105 378-476, limits assumed, looked up): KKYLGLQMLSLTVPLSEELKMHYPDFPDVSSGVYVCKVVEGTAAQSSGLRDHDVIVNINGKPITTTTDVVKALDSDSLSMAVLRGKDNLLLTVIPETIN
# T3: ARHGEF11, O15085
# T3 sequence (O15085 42-136, limits assumed, looked up): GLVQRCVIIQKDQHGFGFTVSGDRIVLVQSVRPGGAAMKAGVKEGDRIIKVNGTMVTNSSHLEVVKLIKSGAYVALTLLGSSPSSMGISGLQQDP
# T4: APBA3_1, O96018
# T4 sequence (O96018 389-490, limits assumed, looked up): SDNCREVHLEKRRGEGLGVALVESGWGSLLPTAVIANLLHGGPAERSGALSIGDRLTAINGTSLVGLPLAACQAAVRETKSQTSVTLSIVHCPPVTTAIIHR
# T5: SNTB1, Q13884
# T5 sequence (Q13884 107-205, limits assumed, looked up): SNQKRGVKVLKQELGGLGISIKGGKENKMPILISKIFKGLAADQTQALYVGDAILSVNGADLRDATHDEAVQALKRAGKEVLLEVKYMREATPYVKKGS
# T6: GRIP1_4, Q9Y3R0
# T6 sequence (Q9Y3R0 467-571, limits assumed, looked up): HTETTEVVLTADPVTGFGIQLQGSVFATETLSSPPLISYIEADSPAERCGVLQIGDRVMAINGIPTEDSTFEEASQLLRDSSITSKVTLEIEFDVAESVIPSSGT
# T7: PDZD2_2, O15018
# T7 sequence (O15018 329-429, limits assumed, looked up): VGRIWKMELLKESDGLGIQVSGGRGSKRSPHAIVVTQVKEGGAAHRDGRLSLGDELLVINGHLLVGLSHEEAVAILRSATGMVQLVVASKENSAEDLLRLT
# T8: LNX2_3, Q8N448
# T8 sequence (Q8N448 463-564, limits assumed, looked up): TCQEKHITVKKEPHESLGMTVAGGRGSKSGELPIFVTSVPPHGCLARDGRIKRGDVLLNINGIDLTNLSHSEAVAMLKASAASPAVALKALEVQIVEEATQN
# T9: NHERF3_4, Q5T2W1
# T9 sequence (Q5T2W1 373-468, limits assumed, looked up): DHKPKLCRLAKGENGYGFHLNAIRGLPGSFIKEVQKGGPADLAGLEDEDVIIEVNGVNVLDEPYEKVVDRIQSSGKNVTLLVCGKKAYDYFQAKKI
# T10: PDZRN3_1, Q9UPQ7
# T10 sequence (Q9UPQ7 244-349, limits assumed, looked up): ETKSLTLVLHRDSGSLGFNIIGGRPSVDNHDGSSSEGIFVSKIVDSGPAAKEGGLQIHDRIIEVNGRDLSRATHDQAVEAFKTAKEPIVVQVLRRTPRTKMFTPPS
# T11: TIAM2, Q8IVF5
# T11 sequence (Q8IVF5 885-986, limits assumed, looked up): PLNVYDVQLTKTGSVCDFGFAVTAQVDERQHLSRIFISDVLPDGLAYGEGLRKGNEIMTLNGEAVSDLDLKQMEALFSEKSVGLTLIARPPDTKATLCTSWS
# T12: LIN7C, Q9NUP9
# T12 sequence (Q9NUP9 88-185, limits assumed, looked up): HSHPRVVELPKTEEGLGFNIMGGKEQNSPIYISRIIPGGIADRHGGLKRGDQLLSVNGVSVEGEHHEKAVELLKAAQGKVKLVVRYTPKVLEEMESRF
# Target: T1, SNTG2, Q9NY99
# Assay: holdup assay
# Design: key: below the threshold = too weak to quantify, mostly under pKd 3.1 to 4
# Conditions: plain residues with an end cap or a label only (N-terminal biotin on a linker: ado-ado)
row,Binder,pKd
1,"GNDPDRGTSI [GRID2, O43424]",below the threshold
2,"DFKHTKSFII [JAM2, P57087]",below the threshold

# Target: IL16_4, Q14005
# Sequence (Q14005 1229-1329): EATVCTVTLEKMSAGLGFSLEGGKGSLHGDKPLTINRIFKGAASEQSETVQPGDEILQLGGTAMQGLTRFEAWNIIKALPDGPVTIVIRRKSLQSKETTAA
# Assay: holdup assay
# Design: key: below the threshold = too weak to quantify, mostly under pKd 3.1 to 4
# Conditions: plain residues with an end cap or a label only (N-terminal biotin on a linker: ado-ado)
row,Binder,pKd
1,"GNDPDRGTSI [GRID2, O43424]",below the threshold
2,"DFKHTKSFII [JAM2, P57087]",below the threshold

# Target: SCRIB_2, Q14160
# Sequence (Q14160 857-960): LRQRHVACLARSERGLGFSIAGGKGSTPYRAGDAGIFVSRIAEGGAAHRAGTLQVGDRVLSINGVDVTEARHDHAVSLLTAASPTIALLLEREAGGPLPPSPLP
# Assay: holdup assay
# Design: key: below the threshold = too weak to quantify, mostly under pKd 3.1 to 4
# Conditions: plain residues with an end cap or a label only (N-terminal biotin on a linker: ado-ado)
row,Binder,pKd
1,"GNDPDRGTSI [GRID2, O43424]",below the threshold
2,"DFKHTKSFII [JAM2, P57087]",below the threshold

# Target: T2, HTRA4, P83105
# Assay: holdup assay
# Design: key: below the threshold = too weak to quantify, mostly under pKd 3.1 to 4
# Conditions: plain residues with an end cap or a label only (N-terminal biotin on a linker: ado-ado)
row,Binder,pKd
1,"GNDPDRGTSI [GRID2, O43424]",below the threshold
2,"DFKHTKSFII [JAM2, P57087]",3.79

# Target: T3, ARHGEF11, O15085
# Assay: holdup assay
# Design: key: below the threshold = too weak to quantify, mostly under pKd 3.1 to 4
# Conditions: plain residues with an end cap or a label only (N-terminal biotin on a linker: ado-ado)
row,Binder,pKd
1,"GNDPDRGTSI [GRID2, O43424]",below the threshold
2,"DFKHTKSFII [JAM2, P57087]",below the threshold

# Target: FRMPD2_2, Q68DX3
# Sequence (Q68DX3 944-1038): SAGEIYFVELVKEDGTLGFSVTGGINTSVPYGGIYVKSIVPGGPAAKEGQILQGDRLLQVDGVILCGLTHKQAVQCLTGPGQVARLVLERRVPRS
# Assay: holdup assay
# Design: key: below the threshold = too weak to quantify, mostly under pKd 3.1 to 4
# Conditions: plain residues with an end cap or a label only (N-terminal biotin on a linker: ado-ado)
row,Binder,pKd
1,"GNDPDRGTSI [GRID2, O43424]",below the threshold
2,"DFKHTKSFII [JAM2, P57087]",below the threshold

# Target: Inadl_6, Q8NI35
# Sequence (Q8NI35 1058-1167): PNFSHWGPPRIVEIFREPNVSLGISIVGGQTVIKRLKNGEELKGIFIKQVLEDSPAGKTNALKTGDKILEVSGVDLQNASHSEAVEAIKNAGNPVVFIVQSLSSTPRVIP
# Assay: holdup assay
# Design: key: below the threshold = too weak to quantify, mostly under pKd 3.1 to 4
# Conditions: plain residues with an end cap or a label only (N-terminal biotin on a linker: ado-ado)
row,Binder,pKd
1,"GNDPDRGTSI [GRID2, O43424]",below the threshold
2,"DFKHTKSFII [JAM2, P57087]",below the threshold

# Target: T4, APBA3_1, O96018
# Assay: holdup assay
# Design: key: below the threshold = too weak to quantify, mostly under pKd 3.1 to 4
# Conditions: plain residues with an end cap or a label only (N-terminal biotin on a linker: ado-ado)
row,Binder,pKd
1,"GNDPDRGTSI [GRID2, O43424]",below the threshold
2,"DFKHTKSFII [JAM2, P57087]",below the threshold

# Target: LNX1_2, Q8TBB1
# Sequence (Q8TBB1 371-470): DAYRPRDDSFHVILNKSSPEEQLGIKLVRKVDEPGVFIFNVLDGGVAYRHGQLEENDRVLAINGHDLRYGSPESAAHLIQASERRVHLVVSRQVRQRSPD
# Assay: holdup assay
# Design: key: below the threshold = too weak to quantify, mostly under pKd 3.1 to 4
# Conditions: plain residues with an end cap or a label only (N-terminal biotin on a linker: ado-ado)
row,Binder,pKd
1,"GNDPDRGTSI [GRID2, O43424]",below the threshold
2,"DFKHTKSFII [JAM2, P57087]",below the threshold

# Target: T5, SNTB1, Q13884
# Assay: holdup assay
# Design: key: below the threshold = too weak to quantify, mostly under pKd 3.1 to 4
# Conditions: plain residues with an end cap or a label only (N-terminal biotin on a linker: ado-ado)
row,Binder,pKd
1,"GNDPDRGTSI [GRID2, O43424]",below the threshold
2,"DFKHTKSFII [JAM2, P57087]",below the threshold

# Target: DLG1_3, Q12959
# Sequence (Q12959 457-571): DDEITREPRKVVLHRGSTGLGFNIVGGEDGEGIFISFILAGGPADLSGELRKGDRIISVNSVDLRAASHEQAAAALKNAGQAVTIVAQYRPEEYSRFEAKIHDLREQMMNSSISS
# Assay: holdup assay
# Design: key: below the threshold = too weak to quantify, mostly under pKd 3.1 to 4
# Conditions: plain residues with an end cap or a label only (N-terminal biotin on a linker: ado-ado)
row,Binder,pKd
1,"GNDPDRGTSI [GRID2, O43424]",below the threshold
2,"DFKHTKSFII [JAM2, P57087]",below the threshold

# Target: T6, GRIP1_4, Q9Y3R0
# Assay: holdup assay
# Design: key: below the threshold = too weak to quantify, mostly under pKd 3.1 to 4
# Conditions: plain residues with an end cap or a label only (N-terminal biotin on a linker: ado-ado)
row,Binder,pKd
1,"GNDPDRGTSI [GRID2, O43424]",below the threshold
2,"DFKHTKSFII [JAM2, P57087]",below the threshold

# Target: T7, PDZD2_2, O15018
# Assay: holdup assay
# Design: key: below the threshold = too weak to quantify, mostly under pKd 3.1 to 4
# Conditions: plain residues with an end cap or a label only (N-terminal biotin on a linker: ado-ado)
row,Binder,pKd
1,"GNDPDRGTSI [GRID2, O43424]",4.76
2,"DFKHTKSFII [JAM2, P57087]",3.87

# Target: LNX1_3, Q8TBB1
# Sequence (Q8TBB1 500-596): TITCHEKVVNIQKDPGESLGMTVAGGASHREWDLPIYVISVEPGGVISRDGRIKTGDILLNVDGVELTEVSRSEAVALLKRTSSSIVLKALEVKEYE
# Assay: holdup assay
# Design: key: below the threshold = too weak to quantify, mostly under pKd 3.1 to 4
# Conditions: plain residues with an end cap or a label only (N-terminal biotin on a linker: ado-ado)
row,Binder,pKd
1,"GNDPDRGTSI [GRID2, O43424]",below the threshold
2,"DFKHTKSFII [JAM2, P57087]",below the threshold

# Target: T8, LNX2_3, Q8N448
# Assay: holdup assay
# Design: key: below the threshold = too weak to quantify, mostly under pKd 3.1 to 4
# Conditions: plain residues with an end cap or a label only (N-terminal biotin on a linker: ado-ado)
row,Binder,pKd
1,"GNDPDRGTSI [GRID2, O43424]",below the threshold
2,"DFKHTKSFII [JAM2, P57087]",below the threshold

# Target: T9, NHERF3_4, Q5T2W1
# Assay: holdup assay
# Design: key: below the threshold = too weak to quantify, mostly under pKd 3.1 to 4
# Conditions: plain residues with an end cap or a label only (N-terminal biotin on a linker: ado-ado)
row,Binder,pKd
1,"GNDPDRGTSI [GRID2, O43424]",below the threshold
2,"DFKHTKSFII [JAM2, P57087]",below the threshold

# Target: MAGI2_4, Q86UL8
# Sequence (Q86UL8 772-865): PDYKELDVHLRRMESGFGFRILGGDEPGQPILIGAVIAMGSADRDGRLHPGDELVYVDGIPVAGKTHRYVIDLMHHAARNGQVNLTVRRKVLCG
# Assay: holdup assay
# Design: key: below the threshold = too weak to quantify, mostly under pKd 3.1 to 4
# Conditions: plain residues with an end cap or a label only (N-terminal biotin on a linker: ado-ado)
row,Binder,pKd
1,"GNDPDRGTSI [GRID2, O43424]",below the threshold
2,"DFKHTKSFII [JAM2, P57087]",below the threshold

# Target: TJP1_3, Q07157
# Sequence (Q07157 416-512): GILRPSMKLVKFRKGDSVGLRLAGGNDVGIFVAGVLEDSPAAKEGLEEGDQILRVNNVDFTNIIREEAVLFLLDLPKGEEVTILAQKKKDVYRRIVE
# Assay: holdup assay
# Design: key: below the threshold = too weak to quantify, mostly under pKd 3.1 to 4
# Conditions: plain residues with an end cap or a label only (N-terminal biotin on a linker: ado-ado)
row,Binder,pKd
1,"GNDPDRGTSI [GRID2, O43424]",below the threshold
2,"DFKHTKSFII [JAM2, P57087]",below the threshold

# Target: T10, PDZRN3_1, Q9UPQ7
# Assay: holdup assay
# Design: key: below the threshold = too weak to quantify, mostly under pKd 3.1 to 4
# Conditions: plain residues with an end cap or a label only (N-terminal biotin on a linker: ado-ado)
row,Binder,pKd
1,"GNDPDRGTSI [GRID2, O43424]",3.88
2,"DFKHTKSFII [JAM2, P57087]",below the threshold

# Target: Inadl_3, Q8NI35
# Sequence (Q8NI35 359-469): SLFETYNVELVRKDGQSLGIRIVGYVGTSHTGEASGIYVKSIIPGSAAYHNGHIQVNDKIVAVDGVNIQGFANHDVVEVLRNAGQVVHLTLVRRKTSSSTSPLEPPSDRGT
# Assay: holdup assay
# Design: key: below the threshold = too weak to quantify, mostly under pKd 3.1 to 4
# Conditions: plain residues with an end cap or a label only (N-terminal biotin on a linker: ado-ado)
row,Binder,pKd
1,"GNDPDRGTSI [GRID2, O43424]",below the threshold
2,"DFKHTKSFII [JAM2, P57087]",4.45

# Target: SNX27, Q96L92
# Assay: holdup assay
# Design: key: below the threshold = too weak to quantify, mostly under pKd 3.1 to 4
# Conditions: plain residues with an end cap or a label only (N-terminal biotin on a linker: ado-ado)
row,Binder,pKd
1,"GNDPDRGTSI [GRID2, O43424]",below the threshold
2,"DFKHTKSFII [JAM2, P57087]",below the threshold

# Target: T11, TIAM2, Q8IVF5
# Assay: holdup assay
# Design: key: below the threshold = too weak to quantify, mostly under pKd 3.1 to 4
# Conditions: plain residues with an end cap or a label only (N-terminal biotin on a linker: ado-ado)
row,Binder,pKd
1,"GNDPDRGTSI [GRID2, O43424]",4.09
2,"DFKHTKSFII [JAM2, P57087]",4.19

# Target: DLG2_2, Q15700
# Sequence (Q15700 189-283): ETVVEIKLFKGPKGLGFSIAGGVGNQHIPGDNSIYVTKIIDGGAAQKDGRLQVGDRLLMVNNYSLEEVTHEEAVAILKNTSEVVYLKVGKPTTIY
# Assay: holdup assay
# Design: key: below the threshold = too weak to quantify, mostly under pKd 3.1 to 4
# Conditions: plain residues with an end cap or a label only (N-terminal biotin on a linker: ado-ado)
row,Binder,pKd
1,"GNDPDRGTSI [GRID2, O43424]",below the threshold
2,"DFKHTKSFII [JAM2, P57087]",below the threshold

# Target: T12, LIN7C, Q9NUP9
# Assay: holdup assay
# Design: key: below the threshold = too weak to quantify, mostly under pKd 3.1 to 4
# Conditions: plain residues with an end cap or a label only (N-terminal biotin on a linker: ado-ado)
row,Binder,pKd
1,"GNDPDRGTSI [GRID2, O43424]",below the threshold
2,"DFKHTKSFII [JAM2, P57087]",below the threshold

# Target: AHNAK1, Q09666
# Sequence (Q09666 4-100): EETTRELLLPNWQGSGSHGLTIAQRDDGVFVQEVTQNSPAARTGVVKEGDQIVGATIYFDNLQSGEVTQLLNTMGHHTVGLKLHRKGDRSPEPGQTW
# Assay: holdup assay
# Design: key: below the threshold = too weak to quantify, mostly under pKd 3.1 to 4
# Conditions: plain residues with an end cap or a label only (N-terminal biotin on a linker: ado-ado)
row,Binder,pKd
1,"GNDPDRGTSI [GRID2, O43424]",below the threshold
2,"DFKHTKSFII [JAM2, P57087]",below the threshold

# Target: LAP2, Q96RT1
# Sequence (Q96RT1 other isoform, or with tags, fused parts or gaps): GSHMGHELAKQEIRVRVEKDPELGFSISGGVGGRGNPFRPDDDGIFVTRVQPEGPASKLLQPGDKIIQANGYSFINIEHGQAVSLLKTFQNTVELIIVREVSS
# Assay: holdup assay
# Design: key: below the threshold = too weak to quantify, mostly under pKd 3.1 to 4
# Conditions: plain residues with an end cap or a label only (N-terminal biotin on a linker: ado-ado)
row,Binder,pKd
1,"GNDPDRGTSI [GRID2, O43424]",below the threshold
2,"DFKHTKSFII [JAM2, P57087]",below the threshold

# — paper PMC9482650, “Quantitative fragmentomics allow affinity mapping of interactomes” (Nature Communications, 2022)
